doi:10.1101/2020.01.15.908418
Read-outs that look alike come from different tables or passages of the source.

Tests used:
[1] = biological target: tropomyosin of murine cardiac thin filaments (mouse (endogenous in murine ventricular myocardium)) (UniProt P58771); assay: cryo-EM structure
[2] = biological target: tropomyosin of murine cardiac thin filaments (mouse (endogenous in murine ventricular myocardium)) (UniProt P58771); assay: cryo-EM structure; remark: listed apart in the source

- stoichiometry N [1]: 2
- stoichiometry N [2]: 2
Substance: tropomyosin of murine cardiac thin filaments (from UniProt P58771 1-284) (natural protein)
